These are literature values, as cited in paper PMC12869367.

The data set addresses DMBT1S8L (Homo sapiens) (UniProt Q9UGM3).
UniProt Q9UGM3, sequence (Q9UGM3 20-2413): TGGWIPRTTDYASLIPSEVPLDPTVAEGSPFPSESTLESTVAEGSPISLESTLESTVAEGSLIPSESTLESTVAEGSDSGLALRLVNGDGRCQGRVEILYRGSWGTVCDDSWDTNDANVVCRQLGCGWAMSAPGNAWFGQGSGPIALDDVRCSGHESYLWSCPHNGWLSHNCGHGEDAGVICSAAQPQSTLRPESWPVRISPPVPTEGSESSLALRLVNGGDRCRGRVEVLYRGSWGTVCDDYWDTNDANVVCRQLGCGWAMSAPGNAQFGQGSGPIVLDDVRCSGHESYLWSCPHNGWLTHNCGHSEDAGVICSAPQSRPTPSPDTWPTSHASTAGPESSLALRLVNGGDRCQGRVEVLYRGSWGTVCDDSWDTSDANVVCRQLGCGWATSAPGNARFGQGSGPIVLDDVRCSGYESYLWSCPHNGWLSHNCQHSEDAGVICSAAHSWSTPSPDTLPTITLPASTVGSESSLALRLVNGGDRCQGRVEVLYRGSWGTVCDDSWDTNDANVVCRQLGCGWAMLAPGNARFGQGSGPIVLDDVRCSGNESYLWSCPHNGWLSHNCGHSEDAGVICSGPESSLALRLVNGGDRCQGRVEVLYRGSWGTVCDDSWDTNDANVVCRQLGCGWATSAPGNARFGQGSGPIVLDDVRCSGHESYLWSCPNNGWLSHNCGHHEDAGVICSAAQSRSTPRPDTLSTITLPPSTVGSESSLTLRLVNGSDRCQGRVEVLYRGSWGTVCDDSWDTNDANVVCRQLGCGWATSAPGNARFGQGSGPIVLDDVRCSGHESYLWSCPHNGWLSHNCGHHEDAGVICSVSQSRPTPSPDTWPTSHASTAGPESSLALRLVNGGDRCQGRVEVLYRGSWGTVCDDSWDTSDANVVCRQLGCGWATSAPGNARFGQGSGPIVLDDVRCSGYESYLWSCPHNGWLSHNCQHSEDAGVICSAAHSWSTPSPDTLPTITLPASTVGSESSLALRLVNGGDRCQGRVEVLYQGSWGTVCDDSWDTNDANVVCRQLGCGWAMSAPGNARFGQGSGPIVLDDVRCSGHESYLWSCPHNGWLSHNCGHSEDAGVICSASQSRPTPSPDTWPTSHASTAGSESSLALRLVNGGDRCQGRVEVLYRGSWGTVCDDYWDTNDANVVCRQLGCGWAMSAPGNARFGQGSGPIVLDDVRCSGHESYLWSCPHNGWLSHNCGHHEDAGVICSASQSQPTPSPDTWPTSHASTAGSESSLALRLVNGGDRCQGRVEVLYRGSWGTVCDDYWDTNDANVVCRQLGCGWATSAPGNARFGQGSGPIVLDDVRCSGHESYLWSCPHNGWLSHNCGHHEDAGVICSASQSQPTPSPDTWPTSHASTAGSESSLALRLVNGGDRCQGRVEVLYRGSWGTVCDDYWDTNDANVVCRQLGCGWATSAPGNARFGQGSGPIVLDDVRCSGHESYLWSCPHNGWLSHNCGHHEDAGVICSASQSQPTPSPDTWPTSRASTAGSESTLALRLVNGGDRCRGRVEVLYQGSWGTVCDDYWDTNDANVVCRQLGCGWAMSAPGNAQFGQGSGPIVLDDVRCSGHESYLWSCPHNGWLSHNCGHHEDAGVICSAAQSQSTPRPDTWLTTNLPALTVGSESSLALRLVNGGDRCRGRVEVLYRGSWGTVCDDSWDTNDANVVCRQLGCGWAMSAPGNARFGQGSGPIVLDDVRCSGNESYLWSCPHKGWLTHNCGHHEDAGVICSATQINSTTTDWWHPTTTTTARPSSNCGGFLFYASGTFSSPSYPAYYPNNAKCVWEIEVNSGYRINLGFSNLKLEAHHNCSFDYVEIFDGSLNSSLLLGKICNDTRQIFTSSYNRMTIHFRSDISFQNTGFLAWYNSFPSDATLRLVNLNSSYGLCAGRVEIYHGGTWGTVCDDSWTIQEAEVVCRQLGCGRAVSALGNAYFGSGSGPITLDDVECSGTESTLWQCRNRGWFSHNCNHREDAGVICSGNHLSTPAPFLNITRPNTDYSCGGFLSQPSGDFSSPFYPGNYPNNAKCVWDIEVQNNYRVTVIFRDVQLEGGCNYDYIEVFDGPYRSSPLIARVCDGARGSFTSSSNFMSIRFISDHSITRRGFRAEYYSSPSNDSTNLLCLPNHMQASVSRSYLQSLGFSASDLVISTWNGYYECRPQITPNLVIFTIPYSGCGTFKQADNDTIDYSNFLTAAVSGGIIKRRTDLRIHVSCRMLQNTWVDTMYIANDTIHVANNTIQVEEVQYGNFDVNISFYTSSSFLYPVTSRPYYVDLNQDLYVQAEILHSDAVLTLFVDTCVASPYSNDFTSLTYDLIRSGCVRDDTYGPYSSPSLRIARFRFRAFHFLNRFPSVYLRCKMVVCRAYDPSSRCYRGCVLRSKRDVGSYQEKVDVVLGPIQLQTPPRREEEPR

Siglec-8-Fc (from UniProt Q9NYZ4): the Kd was 60 pM.

Broadly, the Kd is the concentration at which binding is half-saturated.
